This series concerns the target alpha-thrombin (biotinylated, thrombin-BFPRck) (human, UniProt P00734;P00734 328-363;364-622). Kind of series: BLI; 2 mM Ca2+; TBB: 20 mM HEPES pH 7.4, 150 mM NaCl, 2 mM CaCl2; room temperature (cell binding); BLI in TBB. A general note: BLI is a label-free optical method that tracks binding on a fibre tip over time.

B1: 5-12mini (structured_RNA)
RNA: GGGAGCUCAGAAUAAACGCUCAAGUUACUGAGCUCAGCAUGAGGCCCGGAUCCGGC
modifications: 2'-fluoro pyrimidines
In the case of B1, the dissociation constant (Kd) (usually the concentration at which binding is half-saturated) was approximately 5 nM.

The record behind these values is PMC4486934.
